Here are results for one substance from paper PMC12839305.

For this assay, the target named is RVFV glycoprotein Gn head domain (154–469 aa) (Rift Valley fever virus) (UniProt P21401). Nature of the assay: BLI; […]; 300 s association, 300 s dissociation; […], global 1:1 model; Octet RED96. Background: In BLI a coated tip is dipped into the sample, and binding shifts an interference pattern.

In general, Kd refers to the free concentration of one partner at which half of the binding sites on the other are occupied at equilibrium, for simple one-to-one binding. A higher Kd goes with a looser complex.

“full-length LRP1 (low-density lipoprotein receptor-related protein 1), native, from porcine lung” displayed a Kd of 9.2 nM. This counts as single-digit nanomolar.
